Test results taken from the nanobody polyreactivity screen of Harvey et al. (2022).

Assay: yeast display, Sf9 membrane polyspecificity reagent, FACS + sequencing; frameworks hold sequencing errors
In short: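 Sorting gates, low and high (top ~1%), were placed on anti-HA fluorescence to track expression and on streptavidin fluorescence to track reagent binding. A clone's polyreactivity label is taken from the gate it came out of. The reagent was 10% biotinylated, detergent-solubilized Sf9 membrane, applied for 1 hour at 4 °C to galactose-induced yeast display cells.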

Sequence	polyreactivity (PSR sort gate)
QVQLVESGGGLVQAGGSLRLSCAASGRTLRHYTMGWYRQAPGKERELVAAITSRGSSTYYAESVKGRFTISRDNAKNTVYLQMNSLTPEDTAVYYCNATYVRLTQYFPRLYYPYYFWGQGTQVTVSS	low polyreactivity
QVQLVESGGGLVQAGGSLRLSCAASGSTFAYYTMGWYRPGPGKEREMVAAIRGGGRTYYADSVKGRFTISRDNAKNTVYLQMNSLKPEDTAVYYCAATVYVTKGYGYWGQGTQVTVSS	high polyreactivity
QVQLVESGGGLVQAGGSLRLSCAASGRTFTEYAMGWYRQAHGKERELVARISIGDSTYYADSVKGRFTISRDNAKNTVYLQMNSLKPEDTAVYYCNAEYSRSYRYDEGYWGQGTKVTVSS	low polyreactivity
QVHLVDSGGGLVQAGGSLRLSCAASGSISYDNAMGWYRQAPGKERELVAAITFSGDSTNYADSVKGRFTISRDNAKNTVYLQMNSLKPEDTAVYYCAASQVSDTTRFGYWGQGTQVTVSS	low polyreactivity
QVQLVESGGGLVQAGGSLRLSCAASGSTFPRNAMGWYRQAPGKERELVAAITSGGSTYYADSVKGRFTISRDNAKNTVYLQMNSLKPEDTAVYYCAKSRSSYPYRTYYYWGQGTQVTVSS	low polyreactivity
QVQLVESGGGLVQAGGSLRLSCAASGSIIYRNVMGWYRQAPGKERELVAAISSNGGRTYYADSVKGRFTISRDNAKNTVYLQMNSLKPEDTAVYYCAADTYPGTYYWGQGTQVTVSS	high polyreactivity
QVQLVESGGGLVQAGGSLRLSCAASGYTFNRYAMGWYRQAPGKERELVAAISKRGGSTNYADSVKGRFTISRDNAKNTVYLQMNSLKPEDTAVYYCAKRWRSYSRGGDYWGQGTQVTVSS	high polyreactivity
QVQLVESGGGLVQAGGSLRLSCAASGSTFYWYAMGWYRQAPGKERELVAAITSTGGSTYADSVKGRFTISRDNAKNTVYFQMNSLKPEDTAVYYWNVDTSSPSRRDYDYWGQGTQVTVSS	low polyreactivity
QVQLVESGGRLVQAGGSLRLSCAASGFIFYQYAMGWYRQAPGKERELVAVISRTGSTSYADSVKGRFTISRDNAKNSVYLQLNSLKAEDTAGYYCAKKRALRYYGYDYWGQGTQVTVSS	high polyreactivity
QVQLVESGGGLVQAGGSLRLSCAASGIIFGKYAMGWYRQAPGKERELVASITVDGGTTYYADSVKGRFTISRDNAKNTVYLQMNSLKPEDTAVYYCATGVFAEQWFDYWPYDYWGQGTQVTVSS	high polyreactivity
QVQLVESCGCLVQAGGSLRFSCAASGNTFRRNVMGWYRQAPGKEREMVAAINRGGSTTYADSVKGRFTISRDNAKNTVYLQMNSLKPEDTAVYYFNDRTLFKWRHGHYYAYDYWGQGTQVTVSS	high polyreactivity
QVQLVESGGGLVQAGGSLRLSCAASGRTFVYNAMGWYRQAPGKERELVAAITSGGRTYYADSVKGRFTISRDNAKNTVYLQMNSLKPEDTAVYYCNAGVGARESDYWGQCTQVTVSS	low polyreactivity
QVQLVESGGGLVQAGGSLRLSCAASGLTFYYYAMGWYRQAPGKERELVATITSSGARTYYADSVKGRFTISRDNAKNTVYLQMNSLKPEDTEVYYCAADYGIWQRGSHYWDMDYWGQGTQVTVSS	high polyreactivity
QVQLVESGGGLVQAGGSHRLSCAASGSTFVYYAMGWYRQAPGKERELVADISSSTGSTYYADSVKGRFTISRDNAKNTVYLQMNSLKPEDTAVYYCAAGRLKFWYTYIIYDFYYWGQGTQVTVSS	low polyreactivity
QDQLVESGGGLVQAGGSLRLSCAASGITFAYYAMGWYRQAPGQERDFVAAINGGGSTNYADSVKGRFTISRDNAKNTVYLQMKSLKAEDTAVYYCNARRAYRAWDYPYDYWGQGTQVTVSS	high polyreactivity
QVHLVESGGALVQAGGSLPLSFSASGSIFTYYAMGWYRQQPGKERELVAAINSGGRTNYADSVKGRFTISRDNAKNTVYLQMNSLKPEDTAVYYCAKYGVLQYGYWGQGTQVTVSS	low polyreactivity
QVELVESGGGLVQAGGSLRLSCAASGSTFSINAMGWYRQAPGKERELVADITWRGVRTYYADSVKGRFTISRDNAKNTVYLQMNSLKPEDTAVYYCAADVVVDGHPGFDYWGQGTQVTVSS	high polyreactivity
KLQLVESGGGLVQAGGSLRLSCASSGSIFVWYAMGWYIQAPGKDRELVARITSGGRTNYADSVKGRFTISRDNAKNTVYLQMNSLKPEDTAVFYCAAGRVSWSPYYYWGQGTQVTVSS	high polyreactivity
QVQLVESGGGLVQAGGSLRLSCAASGRISLRILWDGIDRRLGKKGSWLPLLTNTGSTNYADSVKGRFTISRDNAKNTVYLQMNSLKPEDTAVYDCNADPTGGSSYPAYFEYDYWGQGTQVTVSS	low polyreactivity
QVQLVESGGGLVQAGGGLRLSCAASGSIFGSYAMGWYRQAPAKERELVAGITYRGSSTYYADSVKGRFTISRDNAKNTVYLQMTSLKPEDSAVYYCAADPVFDEYDYWGQGTQVTVSS	low polyreactivity
QVQLVESGAGLVQAGGSLRLSCAASGITFYTYAMGWYRQAPGKERELVAAITSRTGSTYYADSVKGRFTISRDNAKNTVYLQMNSLKPEDTAVYYCAADRTRGRDGSDYWGQGTQVTVSS	low polyreactivity
QVQLEESGGGLVQAGGSLRLICAASGLTFYSYAMGWYRQAPGKERELVATIRWSGGSTYYADSVKGRFTISRDNANNTVYLQMNSLKPEDTAVYYCNKRRYPVGSLFDYWGQGTQVTVSS	low polyreactivity

Sequence	polyreactivity (PSR sort gate)
QVQLVESGGGLVQAGGSLRLSCAASGRTFTRIAMGWYRPAPGKERELVAAIRWRGGGSTYYADSVKGRFTISRDNAKNTVYLQMNSLKPEDTAVYYCNARRYTGTGSAWYYYWGQGTQVTVSS	high polyreactivity
QVQLVESGGGLVQAGGSLRLSCAASGSTFGGYAMGWYRQAPGKERELVAAITSRGGSTYYADSVKGRFTISRDNAKNTVYLQMNSLKPEDTAVYYCATGLPKRDRRARIRYEYWGQGTQVTVSS	low polyreactivity
QVQLVESGGGLVQAGGSLRLSCAASGRTFAWYAMGWYRQAPGKERELVAAISSGGSTYYADSVKGRFTISRDNAKKTVYLQMNSLKPDDTAVYYCAAEWHYIYAYDYWRQGTQVTVSS	low polyreactivity
QVQLVESGGGLVQAGGSLRLSCAASGRTFARNAMGWYRQAPGKERELVASIRWRGGSTYYADSVKGRFTISRDNAKNTVYLQMNRLKPEDTAVYYCATRSPYYVGRGYISYDYWGQGTQVTVSS	high polyreactivity
QVQLVESGGGLVQAGGSLRLSCAASGFIFWFNAMGWYRQAPGKERELVATISWSDTSTYYADSVKGRFTISRDNAKNTVYLQMNSLKPEDTAVYYCATDGRETWLPEYYWGQGTQVTVSS	low polyreactivity
QVQLVESGGGLVQAGGSLRLSCAASGSIFRVYAMRWYRQAPGKERELVAAISKSGSSTYYADSVKGRFTISRDNAKNTVYLQMNSLKPEDTAVYYCAARRVLGEYGYWGQGTQVTVSS	high polyreactivity
QVQLVESGGGLVQAGGSLRLSCDASGSIFSTYVMGWYRQAPGKERELVAAITVSVGSTYYADSVKGRFTISRDNAKNTVYLQMNSLKPEDTAVYYCAAGSYSRYLYSLYFDFDYWGQGTQVTVSS	low polyreactivity
QVQLVESGGGLVQAGGSLRLICAASRGIFGQYVMGWYRQAPGKERELVAPISSGGNTYADSVKGRFTISRDNAKNTVYLHMNSLKPEDTAVYYCAAPLTGIVEYDYWGQGTQVTVSS	low polyreactivity
QVQLVESGGGLVQAGGSLRLSCAASGPTNAMGWYRQAPGKERELVAAITKSGGSTYYADSVKGRFTISRDNAKNTVYLQMNSLKPEDTAVYYCALILRHTAYYYWGQGTQVTVSS	high polyreactivity
QVQLQESGGGLVQAGGSLRLSCAASVTISDSGLMGWYRQAPGKERELVAGISSGGITNYADSVKGRFTISRDNAKNTVYLQMNSLKPEVTAVYWGQGTKVTVSS	low polyreactivity
QVQLVESGGGLVQAGGSLRLSCAASGRTFQWYAMGWYRQAPGKERELVAAITSGGNTYYADSVKGRFTISRDNAKNTVYLQMNSLKPEDTAVYYCFLFYSRSMGYWGQGTQVTVSS	high polyreactivity
QVQLVESGGGLVQAGGSLRLSCAASGFTLLPNALGWYRQAPGKERELVAAITASGGRTYYADSVKGRFSISRDNAKNTVYLLMKSLKPVDTAVYDCTAGVYYYTPYTRMDYWGQGTQVTVAS	low polyreactivity
QVQLVESGGGLVQAGGCLRLSCAASGSIFFGYAMGWYRQAPGKERELVAAINGSVITSYADSVKGRFTISRDNAKNTVYLQMNSLKPEDTAYYCNTGSTWGAVIANYDHWGQGTQVTVSS	low polyreactivity
QVQLVESGGGLVQAGGSLRLSCAASGRTFRPYAMGWYRQAPGTERELVARITSGGGRTYYADSVKGRFTISRDNAKNTVYLQMNSLKPEDNAVYYCNKAIYSLYRDGYTNFDYWGQGTQVTVSS	high polyreactivity
QVELVESGGGLVQAGGSLRLSCAASGSTFVDNDMGWYRQAPGKERELVAAAITARGGSTYYADSVTGRFTISRDNAKNTDYIQMNSLKPEDTAVYYCAAGRPGELDYWGQGTQVTVSS	low polyreactivity
QVQLVESGGGLVQAGGSLRLSCAASGFTFKKNAMGWYRQAPGTERELVAAISRSGGITYYADSVKGRFTISRDNAKNTVYLQMNSLKPEDTAVYYCATQTYRTPGYYYWGEGTQVTVSS	high polyreactivity
QVQLVESGGGLVQAGGSLRLSCAASGSIFYGNAMGWYRQAPGKERELVAAISKRGGSTYYADSVKGRFTISRDKAKNSVYLQMNSLKPEDTAVYYCAKATAGHTEYYYWGQGTQVTVSS	high polyreactivity
QVQLVESGGGLVQAGGSLRLSCAASGSTFDWYVMGWNRQAPGKETELVAAINQGSGSTYYADSVKGRFTISRDNAKNPVYLQMNSLKPEDTAVYYCAADRYGAGYLYWPYDYWGQGTQVTVSS	low polyreactivity
QVQLVESGGGLVQAGGSLRLSCAASGRIFRYYAMGWYRQAPGKERELVAAISDSSGSTYYADSVKGRFTISRDNAKNSVYLQMNCLKPEDTAVYYCRYYFGSGYYYWGEGTQVTVSS	high polyreactivity
QVQLVESGGGLVQAGGSLRLSCAASGFIFTGNVMGWYRQAPGKEREFVAAISRSGGNTYYADSVKGRFTISRDKAKNTVYLQMNSLKPEDTAVYYCAVPKHFVVSYDYWGQGTQVTVSS	high polyreactivity
QVQLVESGGGLVQAGGSLRLSCAASGRIFMPYAMGWYRQAPGKERELVAAITCTGGSTYYADSVKGRFTISRDNAKNTVYLQMNSPKPEDTAVYYCNARRGYQQHRRDYWGQGTQVTVSS	low polyreactivity
